Test results from patent US12257281B2, “Hydrophilic antibody-drug conjugates” (priority 2014, dated 2025).
Square brackets hold non-standard residues; d marks the D form. Peptide text beside a SMILES is read from it. * marks the point of attachment. Dolaproine = CO[C@@H]([C@@H]1CCCN1)[C@@H](C)C(=O)O; Hexanoyl(6-maleimido) = O=C1C=CC(=O)N1CCCCCC(=O)*; Dil = CC[C@H](C)[C@H](NC)[C@@H](CC(=O)O)OC; NMeV = CN[C@H](C(=O)O)C(C)C

B1: h1F6-me-vc-PABC-MMAF (conjugate, chains of the INN, looked up)
VH: QVQLVQSGAEVKKPGASVKVSCKASGYTFTNYGMNWVRQAPGQGLKWMGWINTYTGEPTYADAFKGRVTMTRDTSISTAYMELSRLRSDDTAVYYCARDYGDYGMDYWGQGTTVTVSS
VL: DIVMTQSPDSLAVSLGERATINCRASKSVSTSGYSFMHWYQQKPGQPPKLLIYLASNLESGVPDRFSGSGSGTDFTLTISSLQAEDVAVYYCQHSREVPWTFGQGTKVEIK
modifications: me-vc-PABC-MMAF drug conjugate

Legend:
[1] = Hydrophobic Interaction Chromatography (HIC) of 8-loaded ADCs; format: physicochemical; conditions: for HIC RT (min) h1F6 8-loads: 8-loaded antibody drug conjugates with antibody h1F6, Table 2; for HIC retention time: ADCs containing the drug linkers as 8 loads, Table 1
Description: The hydrophilicity index is measured as the retention time of a conjugate to that of the corresponding unconjugated targeting agent (alone) under high performance liquid chromatography (HPLC) conditions, as further described herein. […] If a different hydrophobic interaction column and/or method is used, it can be calibrated using conjugates from Tables 2 as references to determine reference conjugate mobilities (elution times) on the selected column and/or method. The determined reference mobilities on the selected hydrophobic interaction column and/or method can then be used to calculate a hydrophilicity index of a test article (as would be determined following Example 3). For example, an auristatin T-Glu-Dpr-MA, an me-MMAF and an mc-vc-PABC-MMAE drug linkers can be used to form conjugates to use as references. In another example, an auristatin T-Glu-Dpr-MA-h1F6 ADC, an h1F6-mc-MMAF and an h1F6-mc-vc-PABC-MMAE ADC can be used as references.
Analysis of the ADCs was performed using Hydrophobic Interaction Chromatography (HIC). HIC is performed by running a linear gradient from 0-100% Mobile Phase B (MPB) where Mobile Phase A (MPA) consists of 1.5 M ammonium sulfate, 25 mM potassium phosphate, pH 7.0, and MPB consists of 75% 25 mM potassium phosphate, pH 7.0, 25% isopropanol. Separation was achieved using a Tosoh t-Butyl column (TSK-Gel Butyl-NPR 4.6×35 mm, PN: 14947) heated to 25° C. Test articles were prepared by diluting 70 μg of ADC into MPA such that the total salt concentration is greater than or equal to 1.0 M ammonium sulfate at a total volume of 100 μL. Samples were injected at 90 μL and eluted using a 12 minute gradient. Monitoring at λ=280 nm.

786-O tumors = assay: Single dose mouse xenograft studies, h1F6 ADCs; format: in vivo; conditions: FIG. 6
Text: 786-O cells were obtained from American Type Culture Collection (ATCC, Manassas, VA) and propagated in culture conditions recommended by ATCC. To establish 786-O tumors, 5×10^6 cells were implanted into the right flank of athymic nu/nu female donor mice (Harlan, Indianapolis, IN). When donor tumors were approximately 500 mm^3, mice were euthanized and tumors were aseptically excised and ˜0.5×0.5 mm fragments were loaded into a sterilized 13-gauge trocar for implantation into nu/nu mice. When tumors reached ˜100 mm^3, mice were randomly allocated to treatment groups.
Experimental groups were treated via intraperitoneal injection with compounds at the dose and schedule indicated or alternatively left untreated. Tumors were measured periodically and volumes were calculated using the formula V=((L×W^2)/2). Animals were euthanized when tumors reached the volume of 1000 mm^3 or at the end of the study, whichever came first.
Tumor quadrupling times were chosen as time to endpoint (TTE), which was determined by using the non-liner regression analysis for exponential growth of each individual tumor growth data sets from each experimental animal. The median tumor quadrupling time was calculated based on the tumor volume at the beginning of treatment.
Statistical analysis was conducted using Prism (GraphPad) software for Windows. […]

| Molecule | HIC RT (min) h1F6 8-loads [1] [min] | HIC retention time [1] [min] | activity of 8-loaded versus 4-loaded ADC (786-O tumors) |
| --- | --- | --- | --- |
| CC[C@H](C)[C@@H]([C@@H](CC(=O)N1CCC[C@H]1[C@H](OC)[C@@H](C)C(=O)N[C@@H](Cc1ccccc1)C(=O)O)OC)N(C)C(=O)[C@@H](NC(=O)[C@H](C(C)C)N(C)C(=O)CCCCCN1C(=O)C=CC1=O)C(C)C [mc-MMAF, maleimidocaproyl MMAF] ({Hexanoyl(6-maleimido)}-[NMeV]V[Dil][Dolaproine]F-OH) | 7.0 | 7.0 | – |
| maleimidocaproyl-valine-citrulline-p-aminobenzyl-carbamoyl MMAE [mc-vc-PABC-MMAE] | 9.8 | 9.8 | – |
| maleimidocaproyl-valine-citrulline-p-aminobenzyl-carbamoyl MMAF [mc-vc-PABC-MMAF] | 8.2 | 8.2 | – |
| B1 | – | – | 4-loaded ADC gave better activity than the 8-loaded ADC |
